Measured values taken from paper PMC3423370.

Columns and labels:
[1] = molecular target: Biomphalaria glabrata acetylcholine-binding protein (BgAChBP), native rosette protein from hemolymph (Biomphalaria glabrata); assay: cryo-EM structure; native rosette protein at 1.2 mg/ml vitrified on C-flat holey carbon grids; 9770 single particles, icosahedral symmetry, resolution ~6 Å (FSC0.5 5.9 Å)
[2] = molecular target: Biomphalaria glabrata acetylcholine-binding protein (BgAChBP), native rosette protein from hemolymph (Biomphalaria glabrata); assay: non-reducing SDS-PAGE; chromatographically enriched native BgAChBP under non-reducing against reducing conditions; disulfide-linked subunit dimers
[3] = molecular target: Recombinant BgAChBP2 (Biomphalaria glabrata); assay: negative-stain electron microscopy; refolded recombinant protein, 20 mM Tris-HCl pH 8.0 with 50 mM imidazole; 2% uranyl acetate; for BgAChBP1 a 3D reconstruction (~20 Å) from ~3000 negatively stained particles

Biomphalaria glabrata acetylcholine-binding protein (BgAChBP), native rosette protein from hemolymph (complex)
stoichiometry N [1]: 60 | stoichiometry N [2]: 2

Recombinant BgAChBP2 (natural protein)
stoichiometry N [3]: 5
